Key:
[1] = r1 and r2 relaxivities by NMR; format: physicochemical; details: relaxivity; 1 – 60 mM iron; Varian Inova 300MHz (7 Tesla) NMR
4T1 cells = assay: Caspase-3/7 assay; format: cell-based, murine; details: low MMP-14
PyMT tumors = assay: Antitumor activity, daily tumor size; format: in vivo, mouse; details: calipers, daily for 7 days after single IV injection; n=6 mice
[2] = Iron oxide core size by TEM; format: physicochemical; details: after functionalization
[3] = Number of ICT molecules per nanoparticle, from FITC absorption and emission; format: physicochemical; details: from attached fluorescein absorption at 492 nm and known TNP concentration
[4] = Laser Doppler Electrophoresis, zeta potential; format: physicochemical
MMTV-PyMT tumor cells = assay: Caspase-3/7 assay; format: cell-based, murine; details: DEVD-AMC fluorescence, triplicate samples, printed as x:1
MMTV-PyMT tumors [5] = assay: In vivo T2-weighted MR imaging of tumor accumulation; design: species or system mouse; details: single IV injection: ferumoxytol 0.5 mmol Fe/kg, CLIO-ICT 0.75 mmol Fe/kg, ICT 1.0 μmol/kg; up to 24 h; n=6
MMTV-PyMT tumors [6] = assay: Tumor histology; format: in vivo, mouse
[7] = test system: normal organs (liver, spleen, kidney, brain, bone marrow and heart); assay: Toxicity in normal organs; format: in vivo, mouse; details: histology and caspase-3 activity
human dermal fibroblasts = assay: Caspase-3/7 assay; format: cell-based; details: MMP-14 negative fibroblasts
[8] = Dynamic Light Scattering, nanoparticle size; format: physicochemical; details: nanoparticle size by DLS; PBS buffer, filtered 0.2 μm, diluted to 0.6 mM iron
recombinant MMP-14 = recombinant MMP-14 (Homo sapiens, UniProt P50281); format: biochemical; details: ICT 10 mM, recombinant MMP-14 20 μg/mL, PBS buffer, 37 °C, identical conditions (2 hours); HPLC

| Substance | r1 [1] | response to treatment (caspase assay) (4T1 cells) | change in tumor size (PyMT tumors) | iron oxide core size [2] | # of ICT (ICT molecules per iron oxide nanoparticle) [3] | Z (zeta potential) ([4]; Laser Doppler Electrophoresis, PBS buffer, filtered 0.2 μm, 0.6 mM iron) | charge of the nanoparticle ([4]; sign of zeta potential, laser Doppler electrophoresis) | caspase expression ratio relative to the PBS control (MMTV-PyMT tumor cells) | tumor enhancement on postcontrast T2-weighted MR images (MMTV-PyMT tumors [5]) | iron deposits in tumors (Prussian Blue) (MMTV-PyMT tumors [6]; 48 hours after intravenous administration) | tumor necrosis (pathologic evaluation, H&E) (MMTV-PyMT tumors [6]; MMTV-PyMT tumors) | Cy3-labeled cleaved Caspase-3 immunofluorescent staining of tumor cells (MMTV-PyMT tumors [6]; MMTV-PyMT tumors, 48 hours after administration) | toxicity or cell death in normal tissues [7] | cytotoxic effects (caspase assay) (human dermal fibroblasts) | D (DLS) [8] | prodrug cleaved by MMP-14 (recombinant MMP-14) |
| --- | --- | --- | --- | --- | --- | --- | --- | --- | --- | --- | --- | --- | --- | --- | --- | --- |
| FITC-βAla-Cys-Arg-Ser-Cit-Gly-HPhe-Tyr-Leu-Tyr [CLIO-ICT] | 38.9 mM⁻¹ s⁻¹ | not responsive | overall decrease in tumor size | 6.5±0.7 nm | 4.7±0.4 | +21±7 meV | positive | 2.883 | negative (dark) enhancement | Iron deposits were noted | progressive increase in the severity of tumor necrosis | significant labeling of tumor cells | no toxicity or cell death | did not show any significant cytotoxic effects | 21±3 nm | – |
| FITC-βAla-Cys-Arg-Ser-Cit-Gly-HPhe-Tyr-Leu-Tyr [ICT] | – | – | – | – | – | – | – | 2.994 | did not show any significant MR signal enhancement | – | – | – | – | – | – | 89% |

From publication PMC3946335 (Small (Weinheim an der Bergstrasse, Germany), 2013)
